From the supplement of paper PMC9170038

Test system: MS2 coat protein
Experiment: apparent KD of MS2 coat protein; designed switch direction (-1 OFF switch, 1 ON switch): -1; higher = weaker reporter binding
Method in brief: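 On Illumina chips, designed RNA switches with common flanks were made by stalled E. coli RNA polymerase. Titrations with SNAP-549-labelled MS2 coat protein, doubling from 0.7 or 1.5 nM to 3 µM, were done with no input, with 200 uM small-molecule ligand, or with an oligonucleotide input. Apparent KD is the median per design over clusters, from curve fits of normalised cluster fluorescence.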

[1] = Eterna round: R95, input ligand: microRNA oligo, concentration not stated
[2] = input ligand: microRNA oligo, concentration not stated
[3] = Eterna round: R95, input ligand: FMN 200 uM
[4] = Eterna round: R95, input ligand: none

Sequence	apparent KD of MS2 coat protein [1]	apparent KD of MS2 coat protein (input ligand: FMN 200 uM)	apparent KD of MS2 coat protein (input ligand: none)	also measured
CCGCAAAAGCAGGAUAUCGUAUCGGAUACGAUACGAGAAGGGCUAACAUGAGGAUCACCCAUGUGUCCUAGCGG [Fiskers Ex 6 - 38] (puzzle: Exclusion 6)	15.4 nM			
CCGCAAAAGGAGGAUAUCGUAUCGGAUACGAUACGAGAAGGCUUUACAUGAGGAUCACCCAUGUGUCCUAGCGG [Fiskers Ex 6 - 47] (puzzle: Exclusion 6)	13.4 nM			
CCGCAAAUGCAGGAUAUCGUAUCGGAUACGAUACGAGAAGGGCAUACAUGAGGAUCACCCAUGUGUCCUAGCGG [Fiskers Ex 6 - 43] (puzzle: Exclusion 6)	16 nM			
CCGCAUAUGGAGGAUAUCGUAUCGGAAACGAUACGAGAAGGCUAAACAUGAGGAUCACCCAUGUUCCUUAACGG [Fiskers Ex 6 - 29] (puzzle: Exclusion 6)	15.2 nM			
CCGCCGCAAGGAUAUACUUGCGGUGGUGUUCGAGUUCUUUUACUUGAGGAUCACCCAAGUAGAAGGUGCAAAAC [jl-ex2.4.55 ViennaUCT mod] (Eterna round: R97, puzzle: Exclusion 2)		11.9 nM	11.5 nM	
CCGCCUGGAUAGGAUAUAGAGCUUUGAGAGGUCCUAGAAGGGUCCACAUGAGGAUCACCCAUGUCACAAUAUCG [Eternabot (L1) Solution 71] (Eterna round: R97, puzzle: Exclusion 6)		28 nM	29.6 nM	
CCGCUACAUGAGGAUCACCCAUGUCAGGAUAUCGUACGUUCGUCGAAAGACGAUCGUACGAGAAGGGUGAGCGG [Eli x1 4.38] (Eterna round: R97, puzzle: Exclusion 1)		138 nM	187 nM	
CCGCUGCAAGGAUAUACUUGCGGUGGUGUUCGAGUUCUUCUACUUGAGGAUCACCCAAGUAGAAGGUGCAAAAC [jl-ex2.4.56 ViennaUCT mod] (Eterna round: R97, puzzle: Exclusion 2)		12.6 nM	13.5 nM	
CCGGAAAGGGAGGAUAUAGGAGUCGAUAGACACCUAGAAGGCCUGACAUGAGGAUCACCCAUGUGUCCUACCGG [Fiskers Ex 6 - 91] (puzzle: Exclusion 6)	13.7 nM			
CCGGAAAUGAAGGAUAUAGGAGUCGAUAGACUCCUAGAAGGUCAUACAUGAGGAUCACCCAUGUGUCCUACCGG [Fiskers Ex 6 - 74] (puzzle: Exclusion 6)	12.9 nM			
CCGGAAAUGAAGGAUAUAGGCGUCGAUAGACUCCUAGAAGGUCAUACAUGAGGAUCACCCAUGUGUCCUACCGG [Fiskers Ex 6 - 75] (puzzle: Exclusion 6)	14.7 nM			
CCGGAAAUGAAGGAUAUAGGUGUCGAUAGACUCCUAGAAGGUCAUACAUGAGGAUCACCCAUGUGUCCUACCGG [Fiskers Ex 6 - 76] (Eterna round: R96, puzzle: Exclusion 6)		36.7 nM	18 nM	apparent KD of MS2 coat protein [2]: 13.3 nM
CCGGAAAUGAAGGAUAUAGGUGUCGAUAGACUCCUAGAAGGUCAUACAUGAGGAUCACCCAUGUGUCCUACCGG [Fiskers Ex 6 - 76] (puzzle: Exclusion 6)	15.6 nM			
CCGGAAGUACAGGAUAUCGUAACGGAGACGUUACGAGAAGGGUAUACAUGAGGAUCACCCAUGUGUCCUACCGG [Mat - Exclusion 6 - Eli Mod - D94] (puzzle: Exclusion 6)	22 nM			apparent KD of MS2 coat protein [3]: 33.8 nM; apparent KD of MS2 coat protein [4]: 32.2 nM
CCGGAUAUGCAGGAUAUCGUAUCGGAAACGAUACGAGAAGGGUAUACAUGAGGAUCACCCAUGUGCCUUACCGG [Fiskers Ex 6 - 19] (puzzle: Exclusion 6)	16 nM			
CCGGAUAUGCAGGAUAUCGUAUCGGAGACGAUACGAGAAGGGUAUACAUGAGGAUCACCCAUGUGUCCUACCGG [Mat - Exclusion 6 - Eli Mod - D84] (puzzle: Exclusion 6)	22.2 nM			
CCGGCGUGGUGCGGUAGUUGUACGACAUGAGGAUCACCCAUGUAGGAUAUGCGCGUGGUCGCGCCGCAGAAGGACAACGUUUGG [Random, 20% A] (Eterna round: R96, puzzle: Exclusion NG 3)		19.6 nM	23.9 nM	apparent KD of MS2 coat protein [2]: 14.6 nM
CCGGUAUAGGAGGAUAUAGGAGUCGAUAGACACCUAGAAGGCCUGACAUGAGGAUCACCCAUGUGUCCUACCGG [Fiskers Ex 6 - 96] (puzzle: Exclusion 6)	15.9 nM			
CCGUAGUCAGGAUAUACAUGAGGAUCACCCAUGUAAAAUUUUAAUUUAAUUUGAAGGUGUAGAAGGGACCAGUC [Ex3 #27] (Eterna round: R97, puzzle: Exclusion 3)		34.9 nM	33.3 nM	
CCGUCACAUGAGGAUCACCCAUGUCAGGAUAUCUAUCAUAGCAUCGAAAGAUGCGGGUAGAGAAGGGACUAUCC [ChP Ext 10-04-2015 #7] (puzzle: Exclusion 1)	20.3 nM			
CCGUGGCAAGGAUAUACAUAGGAGAGGAAGGCAAGAGGUGGACAUGAGGAUCACCCAUGUAGAAGGUGCAGAUC [JR_Exclu2_Sub027] (puzzle: Exclusion 2)	157 nM			
CCGUGGCAAGGAUAUACGUAGGAGAGGAAGGCAAGAGGAGGACAUGAGGAUCACCCAUGUAGAAGGUGCAGAUC [JR_Exclu2_Sub029] (puzzle: Exclusion 2)	77.4 nM			apparent KD of MS2 coat protein [3]: 62.3 nM; apparent KD of MS2 coat protein [4]: 94.5 nM
